# Reference: article PMC3597663 (Nucleic Acids Research, 2013)
# B1: -35 promoter binding domain of Mycobacterium tuberculosis σ^D (σ^D4), residues 141-212 (domain or fragment)
# chain: MAIEADSVTRMNELLEILPAKQREILILRVVVGLSAEETAAAVGSTTGAVRVAQHRALQRLKDEIVAAGDYA
# Target: Mycobacterium tuberculosis RsdA^1-94 (Mycobacterium tuberculosis, UniProt P9WJ71 1-94)
# Assay: SPR
# Mycobacterium tuberculosis RsdA^1-94, sequence (P9WJ71 1-94): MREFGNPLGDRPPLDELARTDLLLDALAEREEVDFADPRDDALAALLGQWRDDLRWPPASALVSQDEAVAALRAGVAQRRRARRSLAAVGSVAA
binder,measurement,value
B1,Kd,10.3 ± 3.5 µM
